Data as given in patent US7547662 (KIMBERLY CLARK WORLDWIDE, dated 2009).
Residue numbers refer to the chain shown, from its start. Blank lines part the entries; values can stand above or below the binder they belong to.

Legend:
[1] = target: T1, Bovine trypsin (Sigma Chemical Co.) (bovine, UniProt P00760 24-246); assay: ITC, binding agent injected into bovine trypsin, 293 K
T1 construct: Unlabelled in ITC; Oregon Green labelled in the library screening assay; also called bovine pancreatic trypsin
Protocol: (§1) Isothermal titration calorimetry (ITC) was performed with a VP-ITC instrument from MicroCal, Inc. Titrations were carried out by injecting 5 µL of a binding agent (at concentration ranges from 0.5 mM to 1.0 mM) into the 1.4 mL stirred reaction cell. Bovine trypsin (Sigma Chemical Co.) ranged in concentration from 10 to 30 μM in the cell. Both the inhibitor and the enzyme were in 20 mM sodium cacodylate (pH 6.9), 40 mM NaCl. Titrations were conducted at 20° C. Typical experimental conditions for the titrations were a 10 second injection period followed by a 240 second delay between injections for a total of 40 injections. Blank titrations of binding agent into buffer were performed in order to correct for heats of dilution and mixing.
(§2) The ability of three binding agents (SEQ ID NO:4, SEQ ID NO:33 and 35) was tested to ascertain whether they could effectively bind bovine trypsin. Binding was measured by isothermal titration calorimetry (ITC).
Figure 9: FIG. 9 is a graph illustrating the binding between the computer-generated loop i variant and bovine pancreatic trypsin as analyzed by ITC analysis. Binding reagents and trypsin were dialyzed into 20 mM sodium cacodylate (pH 6.9), 40 mM NaCl. The binding reagent was at a concentration of 1 mM and trypsin was used in the calorimeter cell at a concentration of 20 μM. The temperature was maintained at 20° C. 40 injections of 5 μL each were employed with a 240 second re-equilibrium time between injections.

[2] = target: T1, Bovine trypsin (Sigma Chemical Co.); assay: ITC, binding agent injected into bovine trypsin in the cell, 20 C
Protocol: as §1, §2

T1 sequence (P00760 24-246): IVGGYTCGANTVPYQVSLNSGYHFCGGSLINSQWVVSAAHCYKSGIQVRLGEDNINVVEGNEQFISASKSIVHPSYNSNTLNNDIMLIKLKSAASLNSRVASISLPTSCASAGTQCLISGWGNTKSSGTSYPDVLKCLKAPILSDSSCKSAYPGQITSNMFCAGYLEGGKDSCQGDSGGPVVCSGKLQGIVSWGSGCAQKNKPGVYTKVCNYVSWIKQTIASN

- Ka [1]: 622000 M⁻¹
- Stoichiometry [1]: 1.02
- ΔS [1]: -96.6 cal mol^-1 K^-1
B1: Loop i variant from computer search (parental binding agent with loop i ITAVCHK, SEQ ID NO:35) (designed binder)
chain: MDVQLQASGGGSVQAGGSLRLSCAASITAVCHKCAGWFRQAPGKEREGVAAINAGAAGTSYADSVKGRFTISQLAGAANVYLLMNSLEPEDTAIYYCAAGHAGAAGAATCGHGLSTAGAAGAPWGQGTQVTVSS
notes: The protein was then made, expressed and purified, and tested by ITC; also called Loop i Variant Computer; computer-generated loop i variant; not shown: C-terminal hexa-histidine tag added by the vector construct

- Ka [1]: 1.65e+06 M⁻¹
- Stoichiometry [1]: 0.99
- ΔS [1]: -102 cal mol^-1 K^-1
B2: Loop i variant from library screening (parental binding agent with loop i RYLRYPS, SEQ ID NO:33) (designed binder)
chain: B1 chain with I27R, T28Y, A29L, V30R, C31Y, H32P, K33S
notes: The clone came from a library in which loops i to v were randomised; also called Loop i variant Screening; Biological Screen; not shown: C-terminal hexa-histidine tag added by the vector construct

- binding result [2]: no binding
B3: Parental binding agent (generic binding agent, SEQ ID NO:4, Ala/Gly loops) (designed binder)
chain: B1 chain with I27A, T28G, V30A, C31G, H32A, K33A
notes: Camelid VHH-derived beta barrel scaffold, all five loops Ala/Gly; Expressed in E. coli as a monomeric C-terminal His-Tag fusion; not shown: C-terminal hexa-histidine tag added by the vector construct
